From the nanobody polyreactivity screen of Harvey et al. (2022)

Assay: yeast display, Sf9 membrane polyspecificity reagent, FACS + sequencing; frameworks hold sequencing errors
How it was run: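 Galactose-induced (36–48 hours) yeast carrying a synthetic nanobody display library were exposed to 10% biotinylated, detergent-solubilized Sf9 membrane reagent at 4 °C for 1 hour. FACS followed streptavidin microbead enrichment, using low and high (top ~1%) gates for expression (anti-HA) and reagent binding (streptavidin). Colony PCR, MiSeq 2 × 250 sequencing and CDR-length filtering followed. Labels for polyreactivity reflect the gate of origin.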

QVQLVESGGGLVQAGGSLRLSCAASGSTFAANTMGWYRQAPGKERELVAAITVRGGSTYYADSVKGRFTISRDNAKNTVYLLMQSLKPEDTAVYYCAAERPPYGYLVVGYVSTQYYYWGQGTQVTVSS
polyreactivity (PSR sort gate): low polyreactivity

QVQLVESGGGLVQAGGSLRLSCAASGTFWWYAMGWYRQAPGKERELVASINRGGSTYYADSVKGRFTISRDNAKNTVYLQMNSLKPEDSAVYYCNARWIGRLTPYRRATYYYWGQGTQVTVSS
polyreactivity (PSR sort gate): high polyreactivity

QVQLVESGGGLVQAGGSLRLSCAASGFIFWTYAMGWYRQAPGKERELVAAITWSGTSTYYADSVKGRFTISRDNAKNTVYLQMNSLKPEDTAVYYCNALYYSRRVDYWGQGTQVTVSS
polyreactivity (PSR sort gate): high polyreactivity

QVQLVESGGCLVQAGGSLRLSCAASGSIFAAYTMGWYRQAPGKERELVAAISVSTVSTYYADSVKGRFTISRDNAKNTVYLQMNSLKPEDTAVYYCNADATDSYPEKDEHDSWGQGTQVTVSS
polyreactivity (PSR sort gate): low polyreactivity

QVQLVESGGGLVQAGGSLRLSCAASGSTFVRYAMGWYRQAPGKERELVAAISGSGGRTYYADSVKGRFTISRDNAKNTVYLQMYSLKPEDTAVYYCATSTAGGRQTVSQYRYYWGQGTQVTVSS
polyreactivity (PSR sort gate): high polyreactivity

QVQLVESGGGLVQAGGSLRLSCAASGLTFAVYAMGVYRQAPGKEREVVAAINWSGGSTSYADSVKGRFTISRDNAKNTVYLQMNSLKPEDTAVYYCAAVPGSYSYWRVWYGYDYWGQGTQVTVSS
polyreactivity (PSR sort gate): high polyreactivity

QVQLVESGGGLVQAGGSLRLSCAASGRIFYAYAMGWYRQAPGKERELVAGITYSGSSTYYADSVKGRFTISRDNAKNTVYLQMNSLKPEDTAVYYCAADLTRVLRYNYWGQGTQVSVSS
polyreactivity (PSR sort gate): low polyreactivity

QVQLVESGGGLVQAGGSLRLSCAASGIIFKYYAMGWYRQAPGKERELVAAITWSDTRTYYADSVKGRFTISRDNAMNTVYLQMNSLKPEDTAVYYCAVDEPSLYSWGGGYYWGQGTQVTVSS
polyreactivity (PSR sort gate): high polyreactivity

QVQLVESGGGLVQAGGSLRLSCAASGSTFSIYAMGWYRPAPGKERELVAAITGTVGSTYYADSVKGRFTISRDNAKNTVYLQMNSLKPEDTAVYYCAARQVNYDYDYWGQGTQVTVSS
polyreactivity (PSR sort gate): low polyreactivity

QVQLEESGGGLVQAGGSLRLSCAPSGRIYNRNAMGWYRQAPGKERELVASISSGGRTNYADSVKGRFTISRDNAKTTVYLQMNSLKPEDTAVFYCAGNSPRFLLDYWGQGTQVTVSS
polyreactivity (PSR sort gate): low polyreactivity

QVQLVESGGGLVQAGGSLRLSCAASGSTFDGYAMGWYRQAPAKERELVAAISRSGGRTYYADSVNGRFTISRDNAKITVYLQMNSLKPEDTAFYYCAAMYTYKREDYWGQGTQVTVSS
polyreactivity (PSR sort gate): high polyreactivity

QVQLVESGGGLVQAGGSLRLSCAASGFTFSRYAMGWYRQAPGKERELVAAISKSTDSTYYADSVKGRFTISRDNAKNTVYLQMNSLKPEDTAVYYCAAVQRYKGLQDDSWGQGTQVTVSS
polyreactivity (PSR sort gate): high polyreactivity

QVQLVESGGGLDQAGGSLRLSCAASGSIFRYYAMGWYRQAPGKEREFVASITYRGGRTYYADSVKGRFTISRDNAKNTVYLQMNSLKPEDTAVYYCAARTRAGAWTSKYHDYWGQGTQVTVSS
polyreactivity (PSR sort gate): high polyreactivity

QVQLVESGGGLVQAGGSLRLSCAASGIIFGHYAMGWYRQAPGKERELVAAIRSSGGTTYYADSVKGRFTISRDNAKNTVYLQMNSLKPEDTAVYYCAKRGVHLYHDYYWGQGTQVTVSS
polyreactivity (PSR sort gate): low polyreactivity

QVQLVESGGGLVQAGGSLRLSCAASGNTLTYNVMGWYRQGPGKERELVAAISGRGGRTYYADSVKGRFTISRDNAKNTVYLQMNSLKPEATAVYDCATRDRAGYYYWGQGTQVTVSS
polyreactivity (PSR sort gate): high polyreactivity

QVQLVESGGGLVQAGGSLRLICAASGSTFQSYAMGWYRQAPGKERELVAAISARGGTTYYADSVKGRFTISRDNAKNTVYLQMNSLKPEDTAVYYCAAVDHSVYSGSPDTGESDYWGQGTQVTVSS
polyreactivity (PSR sort gate): low polyreactivity

QVQLVESGGGLVQAGGSLRLSCAASGRILLYNAMGWYRQAPGKERELVAAISRSGGYTYYADSVNWRFTISRDNAKNTVYLQMNSLKPEDTAVYYCAAQHGYPRYYYWGQGTQVTVSS
polyreactivity (PSR sort gate): high polyreactivity

QVQLVESGGGLVQAGGSLRLSCAASGFTFLTYLMGWYRQAPGKERELVASISGSGGTTYYADSVKGRFTISRDNAKNTVYLQMNSLKPEDTAVYYCAASGRYRRYYKFNYWGQGTQVTVSS
polyreactivity (PSR sort gate): high polyreactivity

QVQLVESGGGLVQAGGSLRLSCAASGYTFYVYAMGWYRQAPGKERELVAAISSDTGRTYYADSVKGRFTISRDNAKNTVYLQMNSLKPEDTAVYYCAKRRVYGGYDYWGQGTQVTVSS
polyreactivity (PSR sort gate): low polyreactivity

QVQLVESGGGLVQAGGSLRLSCADSGSIFDVNVMGWYRQAPAKERELVASINISGASTYYADSVKGRLTISRDNAKNTVSLQMNSLKPEDTAVYYCAGTYGVPSFRYGYWGQGTQVTVSS
polyreactivity (PSR sort gate): low polyreactivity

QVQLVESGGGFVQAGGSLRLSCAASGSIFKRYAMGWYRQAPGKEWELVARISRRGGTYYADSVKGRFTISRDNAKNTVYLQINSLKPDDTAVYYCNANVIFADNNDRDYWGQGTQVTVSS
polyreactivity (PSR sort gate): low polyreactivity

QVQLVESGGGLVQAGGSLRLSCAASGFTFGPYAMGWYRQAPGNEMELVAGITWSGASTYYADSVKGRFTISRDNAKNTVYLQMNSLNPEDSAVYYCARYYRLVSRYDYWGQGRQVTVSS
polyreactivity (PSR sort gate): low polyreactivity

QVQLVESGGGLVQAGGSLRLSCAASGSIFAYAMGWDRQAPGKERELFAAISGGSTYYADSVKGRFTISRDNAKNTVYLQMNSLNPEDTAVYSCAADLDDERYYWGQGTQVTVSS
polyreactivity (PSR sort gate): low polyreactivity

QVQLVESGGGLVQAGGSLRLSCAASGLTFYFYAMGWYIQAPGKERELVAAIDWGGGSTYYADSVKGRFTISRDYAKNTVYLQMNSLKPEDTAVYYCAARGYYYNYDVNYWGQGTQVTVSS
polyreactivity (PSR sort gate): low polyreactivity

QVQLVESGGGLVQAGGSLRLSCAASGRTFLYNAMGWYRQAPGKERELVASISYSGGSTYYADSVKGRFTISRDTAKYTVYLQMNSLKPEDTAGYYCAARFYASQDIRYDYWGQGTQVTVSS
polyreactivity (PSR sort gate): high polyreactivity

QVQLVESGGGLVQAGGSLRLSCAASGRISVVNAMGWYRQAPGKERELVATINRGGSTYADSVKGRFTISRDNAKNTVYLQMNSLKPEDTAVYYCAATSFSVRFTRYYYWGQGTQVTVSS
polyreactivity (PSR sort gate): high polyreactivity

QVQLVESGGGLVQAGCSLRLSCSASGRIFGYYAKGWYRQAPGKERELVARISGRGGSTYYADSVKVRFSISRDNAQKTVILQMNSLNPEDTAVYYCNVVLSFWKYYAYDQGDYWGQGTQVTVSS
polyreactivity (PSR sort gate): low polyreactivity

QVQLQESGGGLEQAGGSLRMSCAANGNIFDADIVGRYRQAPGKKRELVASITDGGITNYADSVKGRFTISRDNAKYTVYLQMNSQNPEDTAVYYCAAIAYPDIPTYFDYDSDFFYWGQGTQVTVSS
polyreactivity (PSR sort gate): high polyreactivity

QVQLVESGGGLVQAGGSLRLSCAASGSIFLRIAMGWYRQAPGKERELVARIRGGGSTYYADSVKGRFTISRDNAKNTVYLQMNSLKPEDTAVYYCAKDYYKYADGYDYWGQGTQVTVSS
polyreactivity (PSR sort gate): high polyreactivity

QVQLVESGGGIVQAGGSLRLSCAASGSIFKTNPMGWYRQAPGKERELVADISPSSGRTYYADSVKGRFTISRDNSKNTVYLQMNCLKPDDTAVYYCNRLSRRGYDYWGQGTQVTVSS
polyreactivity (PSR sort gate): high polyreactivity

QVQLVESGGGLVQAGGSLRLSCAASGRTLYHYGMGWYRQAPGKERELVAAINFSGGSTNYADSVKGRFTISRDNAKNTVYLQMNSLKPEDTAVYYCNNEGRPDRDYWGQGTQVTVSS
polyreactivity (PSR sort gate): low polyreactivity

QVQLVESGGGLVQAGGSLRLSCAASGSIFTYNAMGWYRQAPGKERELVATISYSGGSTDYADSVKGRFTISRDNAKNTVYLQMNSLKPEDTAVYYCNKEYGYPPIWQDYGYDSWGQGTQVTVSS
polyreactivity (PSR sort gate): high polyreactivity

QVQLVESGGGLVQAGGSLRLSCAACGLTFDDYAMGWSRQAPGKERELVAAISKSGDGTYYADSVKGRFTISRDNAKNTVYLQMNSLKPEDTAVYYCNADAKYWGFVYWWFGEDNWGQGTQVPVSS
polyreactivity (PSR sort gate): low polyreactivity

QVQLVESGGGLVQAGGSLRLSCAASGRIFGRYAMGWYRQAPGKERELVARITFRGGNTYYADSVKGRFTISRDNAKNTVYLQMNSLKPEDTAVYYCNASKHNPYGGDYWGQGTQVTVSS
polyreactivity (PSR sort gate): high polyreactivity

QVQLVESGGGLVQAGGSLRLSCAASGGTFKRYAMGWYRQAPGKERELVAAISGRGGSTYYADSVKGRFTISRDNAKTTVYLQMNSLKPEDTAVYYCNAGGSPQFYGRSKGDYWGQATQVTVSS
polyreactivity (PSR sort gate): high polyreactivity

QVQLVESGGGLVQAGGSLRLSCAASGYIFYGYAMGWYRQAPGKERELVAAITGDGASTNYADSVKGRFTISRDNAKNTVYLQMNSLKPEDTAVYYCNAGRESDDVYEGSQRIGQFDYWGQGTQVTVSS
polyreactivity (PSR sort gate): low polyreactivity

QVQLVESGGGLVQAGGSLRLICAASGATFVDYTMGWYRQAPGKERELVAAITVSAGSTYYADSVKGRFTISRDNAKNTVYLQMNSLKPEDTAVYYCAKATSSFYHYRYDYWGQGTQVTVSS
polyreactivity (PSR sort gate): low polyreactivity

QVQLVESGGALVQAGGSLRLSCAYSGLTFYGNTMGWYRQAPGKERELDAAITYSGTRTYYADSVKGRFTISRDTAKNTVYLQMNSLKPEDTAVYYCNALSYANSIDTYDYWGQVTQVTVSS
polyreactivity (PSR sort gate): high polyreactivity

QVQLVESGGGLVQAGGSLRLSCAASGSIFSYYAMGWYRQAPGKERELVAAISVSGGRTYYADSVKGRFTISRDNAKNTVYLQMNSLKPEDTAVYYCATRIRSYYYWGQGTQVTVSS
polyreactivity (PSR sort gate): high polyreactivity

QVQLVESGGGLVQAGGSLRLSCAASGRIFGRYAKGWYRQAPGKEMELVAAISRSGGSTYYADSVKGRFTISRDNAKNTVYLQMNSLKPEDTAVYDCAAVPGISVGRQPGYDSDYWGQGTQVTVSS
polyreactivity (PSR sort gate): low polyreactivity

QVQIVESGGVLVQPGGILRLSCAASGFTFDAYDMGWYRQAPGKERELVAANSWRGIDTTYADSVKWRFTISRDNAKNPVFLQMNSLKPEDTAVYYCAEFVSDATVGTSKGLDYWGQGTQVTVSS
polyreactivity (PSR sort gate): low polyreactivity

QVQLVESGGGLVQAGGSLRLSCAASGSIGTYVMGWYRQAPGKERELVAAISLSGGSTYYADSVKGRFTISRDNAKNTVYLQMNSLKPEDTAVYYCNAVKATRNTGSDYWGQGTQVTVSS
polyreactivity (PSR sort gate): low polyreactivity

QVQLVESGGGLVQAGGSLRLSCAASVITYFVYAMGWYRQAPGKERELVAAITSGDSTSYADSVKGRFTISRDNAKNTVYLQMNSLKPEDTAVYYCAAEQVTIEDGVYFDFNSWGQGTQVTVSS
polyreactivity (PSR sort gate): low polyreactivity
